In this experiment the target is DNA polymerase theta helicase domain (Polθ-HLD), residues 1–894 (human), O75417. The experiment in a line: crystal structure; apo protein, 3.55 Å, four copies in the asymmetric unit; crystallized in 0.2 M NaCl, 0.1 M HEPES (pH 7.0), 20% PEG 6K, 10% ethylene glycol. The note with it: remark: other sources report otherwise.

The results in this text go back to PMC4671958.

In general, stoichiometry N refers to the number of molecules, sites or subunits per partner or assembly.

B1: DNA polymerase theta helicase domain (Polθ-HLD), residues 1–894, O75417 1-894 (domain or fragment)
chain: MNLLRRSGKRRRSESGSDSFSGSGGDSSASPQFLSGSVLSPPPGLGRCLKAAAAGECKPTVPDYERDKLLLANWGLPKAVLEKYHSFGVKKMFEWQAECLLLGQVLEGKNLVYSAPTSAGKTLVAELLILKRVLEMRKKALFILPFVSVAKEKKYYLQSLFQEVGIKVDGYMGSTSPSRHFSSLDIAVCTIERANGLINRLIEENKMDLLGMVVVDELHMLGDSHRGYLLELLLTKICYITRKSASCQADLASSLSNAVQIVGMSATLPNLELVASWLNAELYHTDFRPVPLLESVKVGNSIYDSSMKLVREFEPMLQVKGDEDHVVSLCYETICDNHSVLLFCPSKKWCEKLADIIAREFYNLHHQAEGLVKPSECPPVILEQKELLEVMDQLRRLPSGLDSVLQKTVPWGVAFHHAGLTFEERDIIEGAFRQGLIRVLAATSTLSSGVNLPARRVIIRTPIFGGRPLDILTYKQMVGRAGRKGVDTVGESILICKNSEKSKGIALLQGSLKPVRSCLQRREGEEVTGSMIRAILEIIVGGVASTSQDMHTYAACTFLAASMKEGKQGIQRNQESVQLGAIEACVMWLLENEFIQSTEASDGTEGKVYHPTHLGSATLSSSLSPADTLDIFADLQRAMKGFVLENDLHILYLVTPMFEDWTTIDWYRFFCLWEKLPTSMKRVAELVGVEEGFLARCVKGKVVARTERQHRQMAIHKRFFTSLVLLDLISEVPLREINQKYGCNRGQIQSLQQSAAVYAGMITVFSNRLGWHNMELLLSQFQKRLTFGIQRELCDLVRVSLLNAQRARVLYASGFHTVADLARANIVEVEVILKNAVPFKSARKAVDEEEEAVEERRNMRTIWVTGRKGLTEREAAALIVEEARMILQQDLVEM
With B1, the stoichiometry N worked out at 4.
